Assay results from paper PMC6547859 (The Journal of Experimental Medicine, 2019).

Molecular target: the molecule itself
Assay: SEC

B1: FLAG-tagged Regnase-1, full-length, phosphorylated (Expi293F, coexpressed with Myc-Act1 and HA-TBK1 or HA-IKKi) (natural protein, UniProt Q5D1E7 1-596, looked up)
chain: MSDPCGTKPVQESNPTMSLWSLEDRHSSQGRPQPDQDPVAKEAPTSELQMKVDFFRKLGYSSSEIHSVLQKLGVQADTNTVLGELVKHGSATERECQALTAPSPQPPLVPRGGSTPKPSTLEPSLPEEDREGSDLRPVVIDGSNVAMSHGNKEVFSCRGILLAVNWFLERGHTDITVFVPSWRKEQPRPDVPITDQHILRELEKKKILVFTPSRRVGGKRVVCYDDRFIVKLAFESDGVVVSNDTYRDLQGERQEWKRFIEERLLMYSFVNDKFMPPDDPLGRHGPSLDNFLRKKPLPSEHRKQPCPYGKKCTYGIKCRFFHPERPSRPQRSVADELRANALLSPPRTPVKDKSSQRPSPASQSSSVSLEAEPGSLDGKKLGARSSPGPHREGSPQTCAPAGRSLPVSGGSFGPTEWLAHTQDSLPYTSQECLDSGIGSLESQMSELWGVRGGSPGESGPTRGPYAGYHSYGSKVPAAPSFSPFRPAMGAGHFSVPTDYVPPPPTYPSREYWSEPYPLPPPTPVLQEPQRPSPGAGGGPWGRVGDLAKERAGVYTKLCGVFPPHLVEAVMRRFPQLLDPQQLAAEILSYKSQHLSE
modifications: phosphorylated by coexpression with Act1 and TBK1 or IKKi; phosphorylation sites identified: Ser439, Ser494, Thr505, Ser508, Ser513
stoichiometry N: 3
